Measured values from US20260001928A1 (CORTERIA PHARMACEUTICALS, priority 2022, published 2026).
One block for each binder: values may come before it. *1 amine or outer side, *2 acyl side, *3 side chain or, on linkers, in order; H or OH if unused. Primed or numbered codes have the meaning given here. Where no end group is shown, it is not given here. Side-chain parts run from the residue outwards. [ ]: non-standard residue; d: D form. The star is where a group is joined. Thp′ = 4-amino-tetrahydro-2H-pyran-4-yl-acetic acid, O=C(CC1(N[*:1])CCOCC1)[*:2]; ThP = 4-amino-tetrahydro-2H-pyran-4-yl-acetic acid, O=C(CC1(N[*:1])CCOCC1)[*:2]; C18 diacid = O=C(O)CCCCCCCCCCCCCCCCC(=O)*; C16 diacid = O=C(O)CCCCCCCCCCCCCCC(=O)*; γGlu = O=C(O)[C@H](CCC(=O)[*:2])N[*:1]; NMeI = CC[C@H](C)[C@H](NC)C(=O)O; Api = NC1(C(=O)O)CCNCC1; Aib = CC(C)(N)C(=O)O

Key:
[1] = molecular target: human corticotropin-releasing factor 2a (CRF2a receptor) (human), Q13324; assay: cell-based or functional assay
Chain of human corticotropin-releasing factor 2a (CRF2a receptor) (human), Q13324 (Q13324 20-411): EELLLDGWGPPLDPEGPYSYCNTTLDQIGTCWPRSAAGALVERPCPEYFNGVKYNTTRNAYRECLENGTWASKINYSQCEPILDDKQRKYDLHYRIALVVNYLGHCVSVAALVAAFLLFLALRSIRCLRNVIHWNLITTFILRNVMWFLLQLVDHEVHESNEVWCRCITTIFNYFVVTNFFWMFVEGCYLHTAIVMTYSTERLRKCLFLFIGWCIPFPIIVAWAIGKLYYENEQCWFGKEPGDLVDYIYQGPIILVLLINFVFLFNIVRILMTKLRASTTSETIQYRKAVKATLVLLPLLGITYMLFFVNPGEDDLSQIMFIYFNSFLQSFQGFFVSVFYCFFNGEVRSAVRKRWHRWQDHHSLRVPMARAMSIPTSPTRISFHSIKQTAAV

CRF1R receptor = molecular target: T1, CRF1R receptor (UniProt P34998 24-415, limits assumed); assay: cell-based or functional assay
T1 sequence (looked up): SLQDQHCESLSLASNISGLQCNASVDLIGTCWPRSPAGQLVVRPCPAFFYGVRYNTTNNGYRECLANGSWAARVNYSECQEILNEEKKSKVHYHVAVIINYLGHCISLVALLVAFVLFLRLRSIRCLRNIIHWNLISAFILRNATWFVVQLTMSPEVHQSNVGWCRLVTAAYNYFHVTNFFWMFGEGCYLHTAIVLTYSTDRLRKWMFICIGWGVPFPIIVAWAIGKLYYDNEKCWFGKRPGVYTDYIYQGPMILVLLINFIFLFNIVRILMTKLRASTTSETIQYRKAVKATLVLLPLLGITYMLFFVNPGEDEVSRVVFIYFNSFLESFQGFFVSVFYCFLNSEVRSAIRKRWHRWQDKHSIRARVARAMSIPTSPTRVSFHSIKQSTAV

B3: SEQ ID NO 23 (peptide)
peptide: [NMeI]VLSLD[dV]PIKLK([γGlu-C18 diacid])QILLKQERQKKQREQAEKN[Aib]QILEQV-NH2
modifications: N-terminus assumed
SMILES: CC[C@H](C)[C@H](NC)C(=O)N[C@H](C(=O)N[C@@H](CC(C)C)C(=O)N[C@@H](CO)C(=O)N[C@@H](CC(C)C)C(=O)N[C@@H](CC(=O)O)C(=O)N[C@@H](C(=O)N1CCC[C@H]1C(=O)N[C@H](C(=O)N[C@@H](CCCCN)C(=O)N[C@@H](CC(C)C)C(=O)N[C@@H](CCCCNC(=O)CC[C@H](NC(=O)CCCCCCCCCCCCCCCCC(=O)O)C(=O)O)C(=O)N[C@@H](CCC(N)=O)C(=O)N[C@H](C(=O)N[C@@H](CC(C)C)C(=O)N[C@@H](CC(C)C)C(=O)N[C@@H](CCCCN)C(=O)N[C@@H](CCC(N)=O)C(=O)N[C@@H](CCC(=O)O)C(=O)N[C@@H](CCCNC(=N)N)C(=O)N[C@@H](CCC(N)=O)C(=O)N[C@@H](CCCCN)C(=O)N[C@@H](CCCCN)C(=O)N[C@@H](CCC(N)=O)C(=O)N[C@@H](CCCNC(=N)N)C(=O)N[C@@H](CCC(=O)O)C(=O)N[C@@H](CCC(N)=O)C(=O)N[C@@H](C)C(=O)N[C@@H](CCC(=O)O)C(=O)N[C@@H](CCCCN)C(=O)N[C@@H](CC(N)=O)C(=O)NC(C)(C)C(=O)N[C@@H](CCC(N)=O)C(=O)N[C@H](C(=O)N[C@@H](CC(C)C)C(=O)N[C@@H](CCC(=O)O)C(=O)N[C@@H](CCC(N)=O)C(=O)N[C@H](C(N)=O)C(C)C)[C@@H](C)CC)[C@@H](C)CC)[C@@H](C)CC)C(C)C)C(C)C
- EC50 [nM] (cAMP) [1]: 0.33 nM
- Emax (% I) (CRF1R receptor): 35%

B4: SEQ ID NO 133 (peptide)
peptide: Ac-IVLSLD[dV]PIKLK([γGlu-C18 diacid])KILLEQEKQKKQREQAETN[ThP]QILAQV-NH2
SMILES: CC[C@H](C)[C@H](NC(C)=O)C(=O)N[C@H](C(=O)N[C@@H](CC(C)C)C(=O)N[C@@H](CO)C(=O)N[C@@H](CC(C)C)C(=O)N[C@@H](CC(=O)O)C(=O)N[C@@H](C(=O)N1CCC[C@H]1C(=O)N[C@H](C(=O)N[C@@H](CCCCN)C(=O)N[C@@H](CC(C)C)C(=O)N[C@@H](CCCCNC(=O)CC[C@H](NC(=O)CCCCCCCCCCCCCCCCC(=O)O)C(=O)O)C(=O)N[C@@H](CCCCN)C(=O)N[C@H](C(=O)N[C@@H](CC(C)C)C(=O)N[C@@H](CC(C)C)C(=O)N[C@@H](CCC(=O)O)C(=O)N[C@@H](CCC(N)=O)C(=O)N[C@@H](CCC(=O)O)C(=O)N[C@@H](CCCCN)C(=O)N[C@@H](CCC(N)=O)C(=O)N[C@@H](CCCCN)C(=O)N[C@@H](CCCCN)C(=O)N[C@@H](CCC(N)=O)C(=O)N[C@@H](CCCNC(=N)N)C(=O)N[C@@H](CCC(=O)O)C(=O)N[C@@H](CCC(N)=O)C(=O)N[C@@H](C)C(=O)N[C@@H](CCC(=O)O)C(=O)N[C@H](C(=O)N[C@@H](CC(N)=O)C(=O)NC1(CC(=O)N[C@@H](CCC(N)=O)C(=O)N[C@H](C(=O)N[C@@H](CC(C)C)C(=O)N[C@@H](C)C(=O)N[C@@H](CCC(N)=O)C(=O)N[C@H](C(N)=O)C(C)C)[C@@H](C)CC)CCOCC1)[C@@H](C)O)[C@@H](C)CC)[C@@H](C)CC)C(C)C)C(C)C
- EC50 [nM] (cAMP) [1]: 0.16 nM
- EC50 (CRF1R receptor): > 250 nM
- Emax (% I) (CRF1R receptor): 11%

Binder: Ac-IVLSLD[dV]PIKLK([γGlu-C16 diacid])KILLEQEKQKKQREQAETN[Thp′]QILAQV-NH2 [SEQ ID NO 58]
- EC50 [nM] (cAMP) [1]: 0.41 nM
- EC50 (CRF1R receptor): > 250 nM
- Emax (% I) (CRF1R receptor): 6%

B6: SEQ ID NO 142 (peptide)
peptide: [NMeI]VLSLD[dV]PIKLK([γGlu-C18 diacid])KILLEQEKQKKQREQAETNEQILAQV-NH2
modifications: N-terminus assumed
SMILES: CC[C@H](C)[C@H](NC)C(=O)N[C@H](C(=O)N[C@@H](CC(C)C)C(=O)N[C@@H](CO)C(=O)N[C@@H](CC(C)C)C(=O)N[C@@H](CC(=O)O)C(=O)N[C@@H](C(=O)N1CCC[C@H]1C(=O)N[C@H](C(=O)N[C@@H](CCCCN)C(=O)N[C@@H](CC(C)C)C(=O)N[C@@H](CCCCNC(=O)CC[C@H](NC(=O)CCCCCCCCCCCCCCCCC(=O)O)C(=O)O)C(=O)N[C@@H](CCCCN)C(=O)N[C@H](C(=O)N[C@@H](CC(C)C)C(=O)N[C@@H](CC(C)C)C(=O)N[C@@H](CCC(=O)O)C(=O)N[C@@H](CCC(N)=O)C(=O)N[C@@H](CCC(=O)O)C(=O)N[C@@H](CCCCN)C(=O)N[C@@H](CCC(N)=O)C(=O)N[C@@H](CCCCN)C(=O)N[C@@H](CCCCN)C(=O)N[C@@H](CCC(N)=O)C(=O)N[C@@H](CCCNC(=N)N)C(=O)N[C@@H](CCC(=O)O)C(=O)N[C@@H](CCC(N)=O)C(=O)N[C@@H](C)C(=O)N[C@@H](CCC(=O)O)C(=O)N[C@H](C(=O)N[C@@H](CC(N)=O)C(=O)N[C@@H](CCC(=O)O)C(=O)N[C@@H](CCC(N)=O)C(=O)N[C@H](C(=O)N[C@@H](CC(C)C)C(=O)N[C@@H](C)C(=O)N[C@@H](CCC(N)=O)C(=O)N[C@H](C(N)=O)C(C)C)[C@@H](C)CC)[C@@H](C)O)[C@@H](C)CC)[C@@H](C)CC)C(C)C)C(C)C
- EC50 [nM] (cAMP) [1]: 0.07 nM
- Emax (% I) (CRF1R receptor): 3%

The remaining lines, values ahead:

- EC50 [nM] (cAMP) [1]: 0.04 nM
- Emax (% I) (CRF1R receptor): 37%
B1: SEQ ID NO 24 (peptide)
peptide: [NMeI]VLSLD[dV]PIKLK([γGlu-C18 diacid])QILLKQERQKKQREQAEKNAQILEQV-NH2
modifications: N-terminus assumed
SMILES: CC[C@H](C)[C@H](NC)C(=O)N[C@H](C(=O)N[C@@H](CC(C)C)C(=O)N[C@@H](CO)C(=O)N[C@@H](CC(C)C)C(=O)N[C@@H](CC(=O)O)C(=O)N[C@@H](C(=O)N1CCC[C@H]1C(=O)N[C@H](C(=O)N[C@@H](CCCCN)C(=O)N[C@@H](CC(C)C)C(=O)N[C@@H](CCCCNC(=O)CC[C@H](NC(=O)CCCCCCCCCCCCCCCCC(=O)O)C(=O)O)C(=O)N[C@@H](CCC(N)=O)C(=O)N[C@H](C(=O)N[C@@H](CC(C)C)C(=O)N[C@@H](CC(C)C)C(=O)N[C@@H](CCCCN)C(=O)N[C@@H](CCC(N)=O)C(=O)N[C@@H](CCC(=O)O)C(=O)N[C@@H](CCCNC(=N)N)C(=O)N[C@@H](CCC(N)=O)C(=O)N[C@@H](CCCCN)C(=O)N[C@@H](CCCCN)C(=O)N[C@@H](CCC(N)=O)C(=O)N[C@@H](CCCNC(=N)N)C(=O)N[C@@H](CCC(=O)O)C(=O)N[C@@H](CCC(N)=O)C(=O)N[C@@H](C)C(=O)N[C@@H](CCC(=O)O)C(=O)N[C@@H](CCCCN)C(=O)N[C@@H](CC(N)=O)C(=O)N[C@@H](C)C(=O)N[C@@H](CCC(N)=O)C(=O)N[C@H](C(=O)N[C@@H](CC(C)C)C(=O)N[C@@H](CCC(=O)O)C(=O)N[C@@H](CCC(N)=O)C(=O)N[C@H](C(N)=O)C(C)C)[C@@H](C)CC)[C@@H](C)CC)[C@@H](C)CC)C(C)C)C(C)C

- EC50 [nM] (cAMP) [1]: 0.16 nM
- Emax (% I) (CRF1R receptor): 32%
B2: SEQ ID NO 141 (peptide)
peptide: [NMeI]VLSLD[dV]PIKLK([γGlu-C18 diacid])KILLEQEKQKKQREQAETN[Api]QILAQV-NH2
modifications: N-terminus assumed
SMILES: CC[C@H](C)[C@H](NC)C(=O)N[C@H](C(=O)N[C@@H](CC(C)C)C(=O)N[C@@H](CO)C(=O)N[C@@H](CC(C)C)C(=O)N[C@@H](CC(=O)O)C(=O)N[C@@H](C(=O)N1CCC[C@H]1C(=O)N[C@H](C(=O)N[C@@H](CCCCN)C(=O)N[C@@H](CC(C)C)C(=O)N[C@@H](CCCCNC(=O)CC[C@H](NC(=O)CCCCCCCCCCCCCCCCC(=O)O)C(=O)O)C(=O)N[C@@H](CCCCN)C(=O)N[C@H](C(=O)N[C@@H](CC(C)C)C(=O)N[C@@H](CC(C)C)C(=O)N[C@@H](CCC(=O)O)C(=O)N[C@@H](CCC(N)=O)C(=O)N[C@@H](CCC(=O)O)C(=O)N[C@@H](CCCCN)C(=O)N[C@@H](CCC(N)=O)C(=O)N[C@@H](CCCCN)C(=O)N[C@@H](CCCCN)C(=O)N[C@@H](CCC(N)=O)C(=O)N[C@@H](CCCNC(=N)N)C(=O)N[C@@H](CCC(=O)O)C(=O)N[C@@H](CCC(N)=O)C(=O)N[C@@H](C)C(=O)N[C@@H](CCC(=O)O)C(=O)N[C@H](C(=O)N[C@@H](CC(N)=O)C(=O)NC1(C(=O)N[C@@H](CCC(N)=O)C(=O)N[C@H](C(=O)N[C@@H](CC(C)C)C(=O)N[C@@H](C)C(=O)N[C@@H](CCC(N)=O)C(=O)N[C@H](C(N)=O)C(C)C)[C@@H](C)CC)CCNCC1)[C@@H](C)O)[C@@H](C)CC)[C@@H](C)CC)C(C)C)C(C)C

- EC50 [nM] (cAMP) [1]: 0.05 nM
- Emax (% I) (CRF1R receptor): 10%
B5: SEQ ID NO 138 (peptide)
peptide: [NMeI]VLSLD[dV]PIKLK([γGlu-C18 diacid])KILLEQEKQKKQREQAETNAQILAQV-NH2
modifications: N-terminus assumed
SMILES: CC[C@H](C)[C@H](NC)C(=O)N[C@H](C(=O)N[C@@H](CC(C)C)C(=O)N[C@@H](CO)C(=O)N[C@@H](CC(C)C)C(=O)N[C@@H](CC(=O)O)C(=O)N[C@@H](C(=O)N1CCC[C@H]1C(=O)N[C@H](C(=O)N[C@@H](CCCCN)C(=O)N[C@@H](CC(C)C)C(=O)N[C@@H](CCCCNC(=O)CC[C@H](NC(=O)CCCCCCCCCCCCCCCCC(=O)O)C(=O)O)C(=O)N[C@@H](CCCCN)C(=O)N[C@H](C(=O)N[C@@H](CC(C)C)C(=O)N[C@@H](CC(C)C)C(=O)N[C@@H](CCC(=O)O)C(=O)N[C@@H](CCC(N)=O)C(=O)N[C@@H](CCC(=O)O)C(=O)N[C@@H](CCCCN)C(=O)N[C@@H](CCC(N)=O)C(=O)N[C@@H](CCCCN)C(=O)N[C@@H](CCCCN)C(=O)N[C@@H](CCC(N)=O)C(=O)N[C@@H](CCCNC(=N)N)C(=O)N[C@@H](CCC(=O)O)C(=O)N[C@@H](CCC(N)=O)C(=O)N[C@@H](C)C(=O)N[C@@H](CCC(=O)O)C(=O)N[C@H](C(=O)N[C@@H](CC(N)=O)C(=O)N[C@@H](C)C(=O)N[C@@H](CCC(N)=O)C(=O)N[C@H](C(=O)N[C@@H](CC(C)C)C(=O)N[C@@H](C)C(=O)N[C@@H](CCC(N)=O)C(=O)N[C@H](C(N)=O)C(C)C)[C@@H](C)CC)[C@@H](C)O)[C@@H](C)CC)[C@@H](C)CC)C(C)C)C(C)C
